The text below walks through data of article PMC7424196 (iScience, 2020).

Test [1] has as its target T1, γc extracellular domain (UniProt P34902 23-263).
T1 sequence (looked up): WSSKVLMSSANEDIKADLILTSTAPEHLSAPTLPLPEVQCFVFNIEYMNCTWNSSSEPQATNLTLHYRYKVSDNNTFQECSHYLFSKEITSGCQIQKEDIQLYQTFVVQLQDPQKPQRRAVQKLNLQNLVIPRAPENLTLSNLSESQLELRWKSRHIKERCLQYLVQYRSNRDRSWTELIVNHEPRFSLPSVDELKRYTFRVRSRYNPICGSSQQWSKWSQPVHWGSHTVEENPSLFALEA
Put plainly: SPR. (SPR reads the build-up and loss of mass on a sensor chip optically.)

The target of test [2] is T1, γc extracellular domain. Put plainly: SPR. The source holds these as a separate data set.

Like-named read-outs stand apart in the source and are kept apart here.

B1: IL-7Rα extracellular domain (domain or fragment, UniProt P16872 21-239, looked up)
chain: ESGNAQDGDLEDADADDHSFWCHSQLEVDGSQHLLTCAFNDSDINTANLEFQICGALLRVKCLTLNKLQDIYFIKTSEFLLIGSSNICVKLGQKNLTCKNMAINTIVKAEAPSDLKVVYRKEANDFLVTFNAPHLKKKYLKKVKHDVAYRPARGESNWTHVSLFHTRTTIPQRKLRPKAMYEIKVRSIPHNDYFKGFWSEWSPSSTFETPEPKNQGGWD
With B1, in test [1], the affinity, expressed as Kd, was 37.3 ± 0.4 nM; the koff was determined as 0.000221 s⁻¹; the kon was determined as 5930 M⁻¹ s⁻¹.

B2: IL-2Rβ extracellular domain (domain or fragment, UniProt P16297 27-240, looked up)
chain: AVKNCSHLECFYNSRANVSCMWSHEEALNVTTCHVHAKSNLRHWNKTCELTLVRQASWACNLILGSFPESQSLTSVDLLDINVVCWEEKGWRRVKTCDFHPFDNLRLVAPHSLQVLHIDTQRCNISWKVSQVSHYIEPYLEFEARRRLLGHSWEDASVLSLKQRQQWLFLEMLIPSTSYEVQVRVKAQRNNTGTWSPWSQPLTFRTRPADPMKE
B2 came in with a Kd in test [2] of 577 ± 40 µM.

Broadly, the Kd is the concentration at which binding is half-saturated. Higher therefore signals lower affinity. One may read the koff as the rate constant with which the complex falls apart. A high value points to a short-lived complex. In general, kon refers to a measure of how fast the partners come together. Read a low kon as slow association.
